# According to US20030166216:
# B1: human checkpoint kinase (hChk1) (enzyme)
# chain: MAVPFVEDWDLVQTLGEGAYGEVQLAVNRVTEEAVAVKIVDMKRAVDCPENIKKEICINKMLNHENVVKFYGHRREGNIQYLFLEYCSGGELFDRIEPDIGMPEPDAQRFFHQLMAGVVYLHGIGITHRDIKPENLLLDERDNLKISDFGLATVFRYNNRERLLNKMCGTLPYVAPELLKRREFHAEPVDVWSCGIVLTAMLAGELPWDQPSDSCQEYSDWKEKKTYLNPWKKIDSAPLALLHKILVENPSARITIPDIKKDRWYNKPLKKGAKRPRVTSGGVSESPSGFSKHIQSNLDFSPVNSASSEENVKYSSSQPEPRTGLSLWDTSPSYIDKLVQGISFSQPTCPDHMLLNSQLLGTPGSSQNPWQRLVKRMTRFFTKLDADKSYQCLKETCEKLGYQWKKSCMNQVTISTTDRRNNKLIFKVNLLEMDDKILVDFRLSKGDGLEFKRHFLKIKGKLIDIVSSQKVWLPAT
# modifications: possible His tag
# Key:
# [1] = test system: mylein basic protein (MBP)
# [2] = test system: poly (Arg, Pro, Thr) 6:3:1
# [3] = test system: protein kinase C (PKC) substrate
protein,measurement,setting,value
B1,"in vitro protein kinase phosphorylation assay ([gamma-33P]ATP incorporation, cpm)",cAMP substrate,significant activity was also found with ... cAMP substrate
same,"in vitro protein kinase phosphorylation assay ([gamma-33P]ATP incorporation, cpm)",calmodulin substrate,"hChk1 showed the highest phosphorylating activity using a calmodulin substrate or the synthetic peptide substrate, poly (Arg, Ser) 3:1"
same,"in vitro protein kinase phosphorylation assay ([gamma-33P]ATP incorporation, cpm)",casein,significant activity was also found with ... casein
same,"in vitro protein kinase phosphorylation assay ([gamma-33P]ATP incorporation, cpm)",[1],significant activity was also found with mylein basic protein (MBP)
same,"in vitro protein kinase phosphorylation assay ([gamma-33P]ATP incorporation, cpm)",[2],"significant activity was also found with ... poly (Arg, Pro, Thr) 6:3:1"
same,"in vitro protein kinase phosphorylation assay ([gamma-33P]ATP incorporation, cpm)","poly (Arg, Ser) 3:1","hChk1 showed the highest phosphorylating activity using a calmodulin substrate or the synthetic peptide substrate, poly (Arg, Ser) 3:1"
same,"in vitro protein kinase phosphorylation assay ([gamma-33P]ATP incorporation, cpm)",[3],significant activity was also found with ... protein kinase C (PKC) substrate
